{"source": "patent US20210115098A1", "target": "activin-like kinase 4 and/or 5 receptor (ALK4/5)", "assay": "cell-based or functional assay"}
{"substance": "Cumulin-like GDF9_H369N (Mutant 7) (from UniProt O60383 30-318) (ligand)", "values": [{"measurement": "Smad-2/3 responsive luciferase reporter, maximal response at 50 ng/mL relative to Mutant 1", "value": 10, "unit": "% reduction"}]}
